Test [1] has as its target T1, human bone morphogenic protein 2 (BMP2) (human, UniProt P12643 283-396, Disulfide-linked homodimer of this chain (non-reduced band of about 36 kDa, monomers of 17-18 kDa); one copy is given.).
T1 construct: Bought recombinant human BMP2 (R&D Systems or Medtronic); also called recombinant human BMP2
Put plainly: SPR (Biacore); mAb captured via anti-human Fc, BMP flowed at 10 nM. How it is done:
(§1) The antigen-antibody association kinetics was followed for 2 minutes and the dissociation kinetics was followed for 8 minutes. The association and dissociation curves were fit to a 1:1 Langmuir binding model using BIAevaluation software (Biacore, AB).
Background: In SPR one partner is held on a chip, and binding of the other changes the refractive index at the surface.

Test [2] concerns the target T2, human bone morphogenic protein 4 (BMP4) (human, UniProt P12644 293-408).
T2 construct: Bought recombinant human BMP4 (R&D Systems); also called recombinant human BMP4
T2 sequence: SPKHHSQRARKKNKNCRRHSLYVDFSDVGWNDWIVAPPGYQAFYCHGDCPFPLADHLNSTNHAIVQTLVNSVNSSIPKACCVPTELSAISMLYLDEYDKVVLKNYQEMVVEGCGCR
Described as above. On the procedure: as §1

Test [3] has as its target T1, human bone morphogenic protein 2 (BMP2). Put plainly: cell-based or functional assay.
Test [4] deals with T3, BMP2 epitope peptide QAKHKQRKRLKSSCKRH (SEQ ID NO:93) (human, also: biotin conjugated, site not given here).
T3 construct: Biotinylated peptide captured on a streptavidin chip
T3 peptide: QAKHKQRKRLKSSCKRH
Put plainly: SPR (Biacore); biotinylated peptide on streptavidin chip, antibody at 40 ug/ml.

Test [5] concerns the target T2, human bone morphogenic protein 4 (BMP4). In words: cell-based or functional assay.
For test [6] the target is unchanged. In words: Biacore competition: mAb (two-fold series from 400 nM) pre-incubated with BMP4 (3-10 nM), mixture injected over immobilised type II BMP receptor; response = BMP4 binding to the receptor. On the procedure: Both type-I and type-II BMP receptors were covalently linked to a CM5 chip (carboxy methyl dextran coated chip) via primary amines, using the standard amine coupling chemistry and kit provided by Biacore. Mixtures of antibody-antigen complex were flowed across the immobilized receptors. […] Antibody-antigen mixtures were injected at a flow rate of 5 μl/min for 3 minutes.

For test [7], the target named is T4, BMP2 epitope peptide ISMLYLDENEKVVLK (SEQ ID NO:92) (human, also: biotin conjugated, site not given here).
T4 construct: Biotinylated peptide captured on a streptavidin chip
T4 peptide: ISMLYLDENEKVVLK
In words: SPR (Biacore); biotinylated peptide on streptavidin chip, antibody at 40 ug/ml.

Where no end group is shown, it is not given here.

The results in this text go back to US20110182904A1 (published 2011).

T1 sequence (P12643 283-396 limits assumed): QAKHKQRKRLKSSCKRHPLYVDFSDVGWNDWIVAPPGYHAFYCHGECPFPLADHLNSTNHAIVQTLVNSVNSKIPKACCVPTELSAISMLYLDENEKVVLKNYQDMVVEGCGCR

B1: 1F6 human monoclonal antibody (antibody, V domains shown)
VH: QVQLQESGPGLVKPSETLSLTCTVSGDSISSYYWSWIRQPPGKGLEWIGYIYYSGSTRYNPPLKSRVTISVDTSKNQFSLKLSSVTAADTAVYYCARICSSTSCWGWFDPWGQGTLVTVSS
VL: not shown
notes: Human IgG from a HuMAb/KM mouse hybridoma
By Kd is commonly meant the concentration at which binding is half-saturated. Lower therefore signals tighter binding. The term koff denotes the rate constant with which the complex falls apart. Low readings indicate a long-lived complex, high ones a short-lived complex. What is called kon is the rate constant with which the complex forms. The low end stands for slow association, the high end for fast association. In test [1], B1 yielded a Kd of 0.02 nM, a koff of 8.49e-05 s⁻¹ and a kon of 4.65e+06 M⁻¹ s⁻¹. Moreover, in test [2], the Kd was 0.0003 nM, the koff was 1.27e-06 s⁻¹ and the kon was 4.97e+06 M⁻¹ s⁻¹.

B2: 11F2 human monoclonal antibody (antibody, V domains shown)
VH: QVQLQESGPGLVKPSETLSLTCTVSGDSIRSYYWSWIRQPPGKGLEWIGYIYYRGSTHYNPSLKSRVTISVDTSKNQFSLKMSSVTAADTAVYYCARICSSISCWGWFDPWGQGTLVTVSS
VL: not shown
notes: as for B1
Consider B2, for which the “IC50 (read off the curve)” value in test [3] was around 3 µg/mL. The binding result in test [4] is given as “binds”. Also, the “IC50 (read off the curve)” value in test [5] is around 3 µg/mL. In test [1], the Kd is 0.01 nM, the koff amounted to 3.09e-05 s⁻¹ and the kon came out at 2.83e+06 M⁻¹ s⁻¹. In test [2], this molecule yielded a Kd of 0.0007 nM, a koff of 3.04e-08 s⁻¹ and a kon of 45300 M⁻¹ s⁻¹.

B3: 6H4 human monoclonal antibody (antibody, V domains shown)
VH: QVHLQQWGAGLLKPSETLSLTCAVYGGSFSGYYWSWIRQPPGKGLEWIGEINHSGSTNYNPSLKSRVTISVDTSKNQFSLKLSSVTAADTAVYYCAREYYYGSESEYFQHWGQGTLVTVSS
VL: EIVLTQSPATLSLSPGERATLSCRASQSVSSYLAWYQQKPGQAPRLLIYDASNRATGIPARFSGSGSGTDFTLTISSLEPEDFAVYYCQQRSNWPHTFGQGTKLEIK
notes: as for B1
In test [1], B3 registered a Kd of 0.1 nM, a koff of 0.000198 s⁻¹ and a kon of 1.42e+06 M⁻¹ s⁻¹. For the same molecule, in test [2], the equilibrium dissociation constant (Kd) turned out to be 0.3 nM, the koff is 0.000497 s⁻¹ and the kon turned out to be 2e+06 M⁻¹ s⁻¹.

B4: 12E3 human monoclonal antibody (antibody, V domains shown)
VH: QVQLVESGGGVVQPGRSLRLSCAASGFTFSSYGMHWVRQAPGKGLEWVAVIWDDGRKKYYADSVKGRFTISRDNSKNTLYLQMNSLRAEDTAVYYCAREPAGVWGMDVWGQGTTVTVSS
VL: DIQMTQSPSSLSASVGDRVTITCRASQGISSWLAWYQQKPEKAPKSLIYAASSLQSGVPSRFSGSGSGTDFTLTISSLQPEDFATYYCQQYNSYPLTFGGGTKVEIK
notes: as for B1
On to B4, for which the “IC50 (read off the curve)” value in test [6] was around 20 nM. Also, the binding result in test [4] is reported as “binds”. In test [1], this molecule showed a Kd of 0.02 nM, a koff of 8.26e-05 s⁻¹ and a kon of 3.39e+06 M⁻¹ s⁻¹. In test [2], this molecule came in with a Kd of 0.28 nM, a koff of 0.000482 s⁻¹ and a kon of 1.75e+06 M⁻¹ s⁻¹.

B5: 16B7 human monoclonal antibody (antibody, V domains shown)
VH: QVQLVESGGGVVQPGRSLRLSCAASGFTFSNYGIHWVRQAPGKGLEWVAVIWYDGSHKYYADSMKGRFTISRDNSKNTLDLQMNSLRAEDTAVYYCARGSSSWYFDLWGRGTLVTVSS
VL: DIQMTQSPSSLSASVGDRVTITCRASQGISSWLAWYQQKPEKAPKSLIYAASSLQSGVPSRFSGSGSGTDFTLTISSLQPEDFATYYCQQYNSYPLTFGGGTKVEIK
notes: as for B1
Consider B5, for which the binding result in test [4] was “binds”. In test [1], this molecule came in with a Kd of 0.08 nM, a koff of 0.000282 s⁻¹ and a kon of 3.7e+06 M⁻¹ s⁻¹. In test [2], this molecule displayed a Kd of 0.02 nM, a koff of 6.12e-05 s⁻¹ and a kon of 2.86e+06 M⁻¹ s⁻¹.

B6: 10F6 human monoclonal antibody (antibody, V domains shown)
VH: QVQLVESGGGVVQPGRSLRLSCAASGFTFRSYGIHWVRQAPGKGLEWVAVIWYDGSHKYYADSVKGRFTISRDNSKNTLDLQMNSLRAEDTAVYYCVRGSSNWYFDYWGQGTLVTVSS
VL: DIQMTQSPSSLSASVGDRVTITCRASQGISSWLAWYQQKPEKAPKSLIYAASSLQSGVPSRFSGSGSGTDFTLTISSLQPEDFATYYCQQYNSYPLTFGGGTKVEIK
notes: as for B1
For B6, in test [1], the Kd amounted to 0.19 nM, the koff turned out to be 0.000385 s⁻¹ and the kon stood at 2.04e+06 M⁻¹ s⁻¹. In test [2], this molecule registered a Kd of 0.75 nM, a koff of 0.00197 s⁻¹ and a kon of 2.61e+06 M⁻¹ s⁻¹.

B7: 8B3 human monoclonal antibody (antibody, V domains shown)
VH: QVQLVQSGAEVKKPGSSVKVSCKASGGTFSSYAISWVRQAPGQGLEWMGRIIPILGIAQYAQKFQGRVTLTADKSTSTAYMELSSLRSEDTAVYYCARGKDIWGQGTMVTVSS
VL: not shown
notes: as for B1
With B7, the binding result in test [7] is “binds”. In test [1], this molecule registered a Kd of 0.19 nM, a koff of 0.000582 s⁻¹ and a kon of 3.02e+06 M⁻¹ s⁻¹. In test [2], this molecule yielded a Kd of 0.18 nM, a koff of 0.000827 s⁻¹ and a kon of 4.69e+06 M⁻¹ s⁻¹.

B8: 15F3 human monoclonal antibody (antibody, V domains shown)
VH: QVQLVQSGAEVKKPGSSVKVSCKASGGTFSSYAISWVRQAPGQGLEWMGRIIPILGIAQYAQKFQGRVTLTADKSTNTAYMELSSLRSEDTAVYYCARGKDIWGQGTMVTVSS
VL: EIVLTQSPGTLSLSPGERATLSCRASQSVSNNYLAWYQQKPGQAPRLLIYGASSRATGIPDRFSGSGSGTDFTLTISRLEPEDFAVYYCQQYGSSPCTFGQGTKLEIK
notes: as for B1
B8: in test [1], the Kd stood at 0.03 nM, the koff was 0.00027 s⁻¹ and the kon came to 7.96e+06 M⁻¹ s⁻¹. In test [2], this molecule yielded a Kd of 0.18 nM, a koff of 0.00056 s⁻¹ and a kon of 3.14e+06 M⁻¹ s⁻¹.

B9: 7D6 human monoclonal antibody (antibody, V domains shown)
VH: QVQLVQSGAEVKKPGSSVKVSCKASGGTFSSYAISWVRQAPGQGLEWMGRIIPILGIVNYAQKFQGRVTITADKSTSTAYMELSSLRSEDTAVYYCARGKDIWGQGTMVTVSS
VL: EIVLTQSPGTLSLSPGERATLSCRASQIVISTYLAWYQQKPGQAPRLLIYGASSRATGIPDRFSGSGSGTDFTLTISRLEPEDFAVYYCQQYGSSPCTFGQGTKLEIK
notes: as for B1
B9: the binding result in test [7] was “binds”. Besides, in test [1], the Kd is 0.28 nM, the koff is 0.00114 s⁻¹ and the kon was 4e+06 M⁻¹ s⁻¹. In test [2], this molecule registered a Kd of 0.42 nM, a koff of 0.0012 s⁻¹ and a kon of 2.84e+06 M⁻¹ s⁻¹.

B10: 33F7 human monoclonal antibody (antibody, V domains shown)
VH: QVQLVQSGAEVKKPGSSVKVSCKASGGTFSSYAINWVRQAPGQGLEWMGRLIPILGIANYAQKFQGRVTITADKSTSTAYMELSSLRSEDTAVYYCARGKDIWGQGTMVTVSS
VL: EIVLTQSPGTLSLSPGERVTLSCRASQSVSSNYLAWYQQKPGQAPRLLIKGASSRATGIPDRFSGSGSGTDFTLTISRLEPEDFAVYYCQQYGSSPCTFGQGTKLEIK
notes: as for B1
For the molecule B10, the “IC50 (read off the curve)” value in test [6] is around 100 nM. Besides, in test [1], the affinity, expressed as Kd, was 0.12 nM; the koff stood at 0.000654 s⁻¹; the kon worked out at 5.71e+06 M⁻¹ s⁻¹. In addition, in test [2], the Kd was 0.38 nM, the koff came to 0.0014 s⁻¹ and the kon was found to be 3.65e+06 M⁻¹ s⁻¹.
